The values that follow come from patent US20090075921A1, “Bone/joint disease sensitivity gene and use thereof” (Riken, priority 2004, published 2009).

For assay [1], the system named is ATDC5 cells. Put plainly: MTT assay of ATDC5 cell growth. Particulars: added alone, medium 1-2. Type of assay: cell-based, mouse. As to the method:
ATDC5 was inoculated to a 12-well plate at 0.4×10^5 cells/well, and cultured using the medium 1-2 described in Example 19 for 24 hours, after which asporin and bFGF were added, and MTT assay was performed over time as described below. Specifically, the medium was removed by suction, the 1 mg/ml MTT reagent (DOJINDO) dissolved in DMEM/F12 was added at 1 ml/well, and the plate was incubated in a CO2 incubator for 1 hour. The supernatant was removed by suction, a Lysis reagent (86% isopropanol, 40 mM HCl, 1% SDS) was added to the plate at 0.2 ml/well, and extraction was performed at room temperature for 5 minutes. This extract was transferred to a 96-well plate, and OD550 was measured using a plate reader.

The test system of assay [2] is ATDC5 cell lines that transiently express human asporin. Put plainly: TGF-β1-stimulated aggrecan and type II collagen gene expression in ATDC5 transiently expressing human asporin. Type of assay: cell-based, mouse. Particulars: transient expression. The protocol:
ATDC5 cells were inoculated to a 12-well plate at 0.5×10^5 cells/well, and cultured in a medium 1-2 (DMEM/F12 medium containing 5% FBS, ITS (Sigma), penicillin (100 U/ml) and streptomycin (100 μg/ml)). 24 hours later, pcDNA3.1-ASP13 or pcDNA3.1-ASP14 were introduced using FuGENE-6 (Roche), and the cells were cultured for 24 hours. Next, the medium was exchanged with a medium 1-2 containing 0.2% FBS, and the cells were cultured for 12 hours, after which TGF-β1 (10 ng/ml) was added, and the cells were further cultured for 18 hours, after which total RNA extraction, purification, cDNA synthesis, and real-time PCR were performed in the same manner as Example 18. As a result, the elevation of the TGF-β1-stimulated expression levels of the aggrecan and type II collagen genes was suppressed in the ATDC5 cells allowed to transiently express human asporin D13 or D14 compared to mock (FIG. 14).
First, the expression level of the aggrecan gene elevated by TGF-β1 stimulation in mock is written as (AM), and the expression level of the type II collagen gene at the same time is written as (CM). Next, the TGF-β1-stimulated aggrecan gene expression level suppressed by the forced expression of asporin D13 is written as (A13), and the type II collagen gene expression level at the same time is written as (C13). […] Thus, the suppression rate of the TGF-β1-stimulated aggrecan gene expression in the asporin D13 expressing line can be expressed as (A13)/(AM), and the suppression rate of the type II collagen gene expression as (C13)/(CM). Likewise, the suppression rate of the TGF-β1-stimulated aggrecan gene expression in the asporin D14 expressing line can be expressed as (A14)/(AM), and the suppression rate of the type II collagen gene expression as (C14)/(CM). Furthermore, by making a correction by dividing these values by the human asporin mRNA content obtained with TGF-β1 stimulation, the suppression rate of the aggrecan and type II collagen gene expression per human asporin mRNA content were calculated. […]

Assay [3] deals with T1, type I collagen (Homo sapiens, UniProt P02452+P08123).
T1 construct: purchased Nitta Gelatin Inc. 1-C
As to the kind of experiment: Binding assay of asporin and collagen (type I). Particulars: 37° C., 5 hours, precipitate, Western blotting. As to the method: (§1) A binding assay of asporin and collagen was performed by the method described below. As a collagen an acid-soluble type II collagen solution (KOKEN, 3 mg/ml) and an acid-soluble type I collagen solution (1-C: Nitta Gelatin Inc., 3 mg/ml) were used. A reaction mixture comprising 5 μl of an acid-soluble collagen solution (3 mg/ml), 5 μl of an S-tagged human asporin reaction mixture prepared by the method described in Example, and 90 μl of PBS, was prepared, and incubated at 37° C. for 5 hours. This reaction mixture was centrifuged (10,000 rpm, 5 minutes, 4° C.), after which the precipitate was washed with PBS three times. The washed precipitate was dissolved in 20 μl of a sample buffer (comprising 1 μl of 2-mercaptoethanol), after which SDS-PAGE was performed, and Western blotting was performed using streptavidin-HRP. As a result, S-tagged human asporin D13 and D14 bound to both type II collagen and type I collagen (FIG. 21a).

In assay [4] the test system is type II collagen. Put plainly: Binding assay of asporin and collagen (type II). Particulars: 37° C., 5 hours, precipitate, Western blotting. The protocol: as §1
Assay [5] addresses TGF-β1 (Homo sapiens, UniProt P01137). Put plainly: Binding assay of asporin and TGF-β by pull-down assay method. Particulars: S-Protein agarose precipitate, Western blotting. The protocol:
With the pET29b-ASP13 and pET29b-ASP14 thus prepared as the templates, S-tagged human asporin D13 and D14 were prepared by performing a reaction in the presence of Transcend™ Biotin-Lysyl-tRNA using TNT Quick Coupled Transcription/Translation Systems (Promega). A reaction mixture comprising S-tagged human asporin D13 or D14 (10 μl) and TGF-β1 (0.1 μg) were mixed in buffer A (50 mM Tris (pH 7.5), 150 mM NaCl, 1% Triton X-100, complete protease inhibitor cocktail tablets (Roche)) at 4° C. for 1 hour, S-Protein agarose (Novagen, 12.5 μl) was added, and the mixture was further incubated at room temperature for 30 minutes. The precipitated resin was washed with buffer A five times, after which SDS-PAGE was performed under reducing conditions. S-tagged human asporin in the precipitate was detected by Western blotting using streptavidin-HRP (R&D Systems), and TGF-β1 was detected by Western blotting using biotinylated anti-TGF-β1 antibody (Genzyme). As a result of an examination of the binding of human asporin and TGF-β by the method described above, a band of TGF-β1 was detected in the precipitate comprising S-tagged human asporin D13 or D14 (FIG. 17).
Using the recombinant mouse asporin purified by the method described in Example 31, its capability of binding with TGF-β1 was examined by the method described in Example 22 (pull-down assay method); as a result, it was confirmed that TGF-β1 was detected in the precipitate of purified mouse asporin (FIG. 26).

T1 sequence (P02452 162-1218 limits assumed): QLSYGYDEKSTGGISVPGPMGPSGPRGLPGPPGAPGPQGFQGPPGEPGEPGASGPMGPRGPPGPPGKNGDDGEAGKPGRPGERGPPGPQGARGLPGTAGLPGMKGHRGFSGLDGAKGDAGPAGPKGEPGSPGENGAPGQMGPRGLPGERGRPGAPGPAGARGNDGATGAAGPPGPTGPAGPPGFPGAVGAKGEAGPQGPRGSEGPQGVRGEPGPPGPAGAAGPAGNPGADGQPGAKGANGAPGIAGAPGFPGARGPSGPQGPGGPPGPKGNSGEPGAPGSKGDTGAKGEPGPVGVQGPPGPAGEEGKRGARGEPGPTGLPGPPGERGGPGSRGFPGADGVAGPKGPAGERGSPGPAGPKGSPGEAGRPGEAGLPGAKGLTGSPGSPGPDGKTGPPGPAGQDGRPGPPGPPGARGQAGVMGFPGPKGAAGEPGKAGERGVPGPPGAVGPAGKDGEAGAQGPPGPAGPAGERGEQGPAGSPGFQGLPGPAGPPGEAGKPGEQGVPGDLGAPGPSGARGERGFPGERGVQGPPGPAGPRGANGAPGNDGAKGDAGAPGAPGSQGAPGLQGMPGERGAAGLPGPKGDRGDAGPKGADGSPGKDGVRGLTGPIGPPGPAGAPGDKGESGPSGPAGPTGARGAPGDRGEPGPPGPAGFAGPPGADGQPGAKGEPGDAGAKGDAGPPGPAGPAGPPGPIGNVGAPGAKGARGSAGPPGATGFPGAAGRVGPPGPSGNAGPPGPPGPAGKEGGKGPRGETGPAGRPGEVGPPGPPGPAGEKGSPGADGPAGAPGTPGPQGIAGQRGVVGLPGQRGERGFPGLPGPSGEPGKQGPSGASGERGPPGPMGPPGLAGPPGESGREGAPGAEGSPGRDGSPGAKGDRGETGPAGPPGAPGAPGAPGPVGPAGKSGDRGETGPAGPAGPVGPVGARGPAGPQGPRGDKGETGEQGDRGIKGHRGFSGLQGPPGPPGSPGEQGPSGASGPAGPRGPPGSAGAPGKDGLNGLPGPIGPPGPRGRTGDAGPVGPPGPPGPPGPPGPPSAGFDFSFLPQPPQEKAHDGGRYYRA
T1 sequence (P08123 80-1119 limits assumed): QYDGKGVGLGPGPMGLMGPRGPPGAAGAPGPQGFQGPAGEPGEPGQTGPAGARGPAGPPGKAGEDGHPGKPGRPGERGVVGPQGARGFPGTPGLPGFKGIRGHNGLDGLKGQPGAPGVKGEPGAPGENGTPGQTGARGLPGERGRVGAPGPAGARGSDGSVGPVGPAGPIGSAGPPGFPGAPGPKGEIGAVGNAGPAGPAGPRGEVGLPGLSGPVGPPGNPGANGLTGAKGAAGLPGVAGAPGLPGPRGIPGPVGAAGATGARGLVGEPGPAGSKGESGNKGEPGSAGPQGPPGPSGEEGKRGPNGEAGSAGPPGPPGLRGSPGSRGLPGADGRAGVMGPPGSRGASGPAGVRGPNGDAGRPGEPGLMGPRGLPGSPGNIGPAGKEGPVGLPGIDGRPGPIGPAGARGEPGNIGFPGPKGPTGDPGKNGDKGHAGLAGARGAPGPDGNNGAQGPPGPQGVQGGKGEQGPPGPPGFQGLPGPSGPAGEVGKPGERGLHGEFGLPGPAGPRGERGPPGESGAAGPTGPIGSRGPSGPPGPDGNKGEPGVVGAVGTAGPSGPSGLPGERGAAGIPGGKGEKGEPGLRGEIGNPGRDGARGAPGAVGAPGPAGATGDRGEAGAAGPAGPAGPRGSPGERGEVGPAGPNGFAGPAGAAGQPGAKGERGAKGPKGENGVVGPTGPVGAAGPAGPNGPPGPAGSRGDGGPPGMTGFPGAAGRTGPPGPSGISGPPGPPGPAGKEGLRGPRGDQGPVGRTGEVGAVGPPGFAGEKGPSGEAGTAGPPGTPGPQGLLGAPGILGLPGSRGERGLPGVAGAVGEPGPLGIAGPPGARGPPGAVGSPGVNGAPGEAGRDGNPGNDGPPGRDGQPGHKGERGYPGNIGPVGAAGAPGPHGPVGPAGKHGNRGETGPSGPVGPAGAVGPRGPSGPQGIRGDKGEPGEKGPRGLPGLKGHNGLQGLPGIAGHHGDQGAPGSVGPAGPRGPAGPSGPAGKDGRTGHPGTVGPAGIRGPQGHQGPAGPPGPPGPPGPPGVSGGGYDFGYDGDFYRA
Sequence of type II collagen (P02458 182-1241 limits assumed): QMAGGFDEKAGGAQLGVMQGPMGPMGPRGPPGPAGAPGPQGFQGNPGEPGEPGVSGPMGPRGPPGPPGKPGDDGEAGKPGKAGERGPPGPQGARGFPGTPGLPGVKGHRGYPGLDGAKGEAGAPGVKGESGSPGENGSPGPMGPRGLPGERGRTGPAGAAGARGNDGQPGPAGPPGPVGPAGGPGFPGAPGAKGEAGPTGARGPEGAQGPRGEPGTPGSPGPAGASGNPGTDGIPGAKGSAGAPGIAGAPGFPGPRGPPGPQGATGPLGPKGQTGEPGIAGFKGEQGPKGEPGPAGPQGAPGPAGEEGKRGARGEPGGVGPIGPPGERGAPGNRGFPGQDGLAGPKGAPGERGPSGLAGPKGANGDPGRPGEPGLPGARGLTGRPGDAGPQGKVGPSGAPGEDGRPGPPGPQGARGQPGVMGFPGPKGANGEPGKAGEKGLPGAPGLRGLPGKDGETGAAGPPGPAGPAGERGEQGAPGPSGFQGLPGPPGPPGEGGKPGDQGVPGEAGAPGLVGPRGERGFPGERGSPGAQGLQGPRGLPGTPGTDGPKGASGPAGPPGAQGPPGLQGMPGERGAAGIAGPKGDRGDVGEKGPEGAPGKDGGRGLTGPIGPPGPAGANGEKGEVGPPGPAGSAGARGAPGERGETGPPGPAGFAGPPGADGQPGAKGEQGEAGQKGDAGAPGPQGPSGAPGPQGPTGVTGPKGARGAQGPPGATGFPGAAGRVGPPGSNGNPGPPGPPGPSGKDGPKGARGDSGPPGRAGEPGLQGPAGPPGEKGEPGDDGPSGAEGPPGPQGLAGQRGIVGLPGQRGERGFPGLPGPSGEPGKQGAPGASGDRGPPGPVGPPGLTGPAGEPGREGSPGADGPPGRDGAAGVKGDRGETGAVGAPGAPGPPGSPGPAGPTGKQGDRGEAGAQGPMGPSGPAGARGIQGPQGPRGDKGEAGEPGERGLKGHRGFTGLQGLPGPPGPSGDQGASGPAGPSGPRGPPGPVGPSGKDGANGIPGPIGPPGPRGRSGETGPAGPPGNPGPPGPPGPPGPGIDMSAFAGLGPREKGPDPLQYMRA
Sequence of TGF-β1 (P01137 279-390 limits assumed, species assumed): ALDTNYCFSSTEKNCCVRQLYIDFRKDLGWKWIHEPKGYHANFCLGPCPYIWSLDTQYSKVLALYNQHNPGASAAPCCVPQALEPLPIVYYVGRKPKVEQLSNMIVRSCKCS

In the case of “bFGF: growth factor added to ATDC5 cells and coated on microplate [reference compound]”, the “growth of ATDC5 cells (MTT, OD550)” value in assay [1] is given as “suppressed the growth of ATDC5 cells concentration-dependently”.

B1: D16: asporin having D-repeat number of 16, transiently expressed (protein)
chain: AKPFFSPSHIALKNMMLKDMEDTDDDDDDDDDDDDDDEDNSLFPTREPRSHFFPFDLFPMCPFGCQCYSRVVHCSDLGLTSVPTNIPFDTRMLDLQNNKIKEIKENDFKGLTSLYGLILNNNKLTKIHPKAFLTTKKLRRLYLSHNQLSEIPLNLPKSLAELRIHENKVKKIQKDTFKGMNALHVLEMSANPLDNNGIEPGAFEGVTVFHIRIAEAKLTSVPKGLPPTLLELHLDYNKISTVELEDFKRYKELQRLGLGNNKITDIENGSLANIPRVREIHLENNKLKKIPSGLPELKYLQIIFLHSNSIARVGVNDFCPTVPKMKKSLYSAISLFNNPVKYWEMQPATFRCVLSRMSVQLGNFGM
With B1, the “suppressive action on the TGF-β1-stimulated expression of COL2A1 compared with D14” value in assay [2] was “significantly weaker than that of D14”.

B2: D17: asporin having D-repeat number of 17, transiently expressed (protein)
chain: B1 chain
B2: the “suppressive action on the TGF-β1-stimulated expression of COL2A1 compared with D14” value in assay [2] is “significantly weaker than that of D14”.

B3: S-tagged human asporin D13: mature S-tagged human asporin D13 synthesized cell-free from pET29b-ASP13, lysines biotinylated (protein)
chain: DMEDTDDDDDDDDDDDDDEDNSLFPTREPRSHFFPFDLFPMCPFGCQCYSRVVHCSDLGLTSVPTNIPFDTRMLDLQNNKIKEIKENDFKGLTSLYGLILNNNKLTKIHPKAFLTTKKLRRLYLSHNQLSEIPLNLPKSLAELRIHENKVKKIQKDTFKGMNALHVLEMSANPLDNNGIEPGAFEGVTVFHIRIAEAKLTSVPKGLPPTLLELHLDYNKISTVELEDFKRYKELQRLGLGNNKITDIENGSLANIPRVREIHLENNKLKKIPSGLPELKYLQIIFLHSNSIARVGVNDFCPTVPKMKKSLYSAISLFNNPVKYWEMQPATFRCVLSRMSVQLGNFGM
modifications: left off: small tags and cut ends
notes: mature S-tagged human asporin D13 synthesized cell-free from pET29b-ASP13, lysines biotinylated
For the molecule B3, in assay [3], the “binding to type I collagen” value is listed as “bound”. Moreover, in assay [4], the “binding to type II collagen” value was “bound”. Moreover, the “binding to TGF-β1 (pull-down)” value in assay [5] is “bound to TGF-β1 in vitro”.

B4: S-tagged human asporin D14: mature S-tagged human asporin D14 synthesized cell-free from pET29b-ASP14, lysines biotinylated (protein)
chain: DMEDTDDDDDDDDDDDDDDEDNSLFPTREPRSHFFPFDLFPMCPFGCQCYSRVVHCSDLGLTSVPTNIPFDTRMLDLQNNKIKEIKENDFKGLTSLYGLILNNNKLTKIHPKAFLTTKKLRRLYLSHNQLSEIPLNLPKSLAELRIHENKVKKIQKDTFKGMNALHVLEMSANPLDNNGIEPGAFEGVTVFHIRIAEAKLTSVPKGLPPTLLELHLDYNKISTVELEDFKRYKELQRLGLGNNKITDIENGSLANIPRVREIHLENNKLKKIPSGLPELKYLQIIFLHSNSIARVGVNDFCPTVPKMKKSLYSAISLFNNPVKYWEMQPATFRCVLSRMSVQLGNFGM
modifications: left off: small tags and cut ends
notes: mature S-tagged human asporin D14 synthesized cell-free from pET29b-ASP14, lysines biotinylated
As to B4, the “binding to type I collagen” value in assay [3] is reported as “bound”. For the same molecule, in assay [4], the “binding to type II collagen” value was “bound”. Moreover, in assay [5], the “binding to TGF-β1 (pull-down)” value was “bound to TGF-β1 in vitro”.

B5: biglycan: SLRP family proteoglycan used as the negative control for collagen binding (protein, UniProt P21810 38-368, looked up)
Biglycan: DEEASGADTSGVLDPDSVTPTYSAMCPFGCHCHLRVVQCSDLGLKSVPKEISPDTTLLDLQNNDISELRKDDFKGLQHLYALVLVNNKISKIHEKAFSPLRKLQKLYISKNHLVEIPPNLPSSLVELRIHDNRIRKVPKGVFSGLRNMNCIEMGGNPLENSGFEPGAFDGLKLNYLRISEAKLTGIPKDLPETLNELHLDHNKIQAIELEDLLRYSKLYRLGLGHNQIRMIENGSLSFLPTLRELHLDNNKLARVPSGLPDLKLLQVVYLHSNNITKVGVNDFCPMGFGVKRAYYNGISLFNNPVPYWEVQPATFRCVTDRLAIQFGNYKK
As for B5, the “binding to type I collagen” value in assay [3] is listed as “did not bind”. The “binding to type II collagen” value in assay [4] was “did not bind”.
